Data reported in the nanobody polyreactivity screen of Harvey et al. (2022).

Test: yeast display, Sf9 membrane polyspecificity reagent, FACS + sequencing; frameworks hold sequencing errors
Summary of the method: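 Nanobodies came from a synthetic yeast display library in Saccharomyces cerevisiae BJ5465, induced with galactose for 36–48 hours and stained for 1 hour at 4 °C with 10% biotinylated, detergent-solubilized Sf9 membrane reagent. Cells were enriched on streptavidin microbeads and then FACS-sorted, with low and high (top ~1%) gates set on anti-HA fluorescence for expression and streptavidin fluorescence for reagent binding. Each polyreactivity label reflects the gate a clone came from. Genes were amplified by colony PCR, sequenced by MiSeq 2 × 250 and filtered by CDR length.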

| Sequence | polyreactivity (PSR sort gate) |
| --- | --- |
| QVQLVESGGGLVQAGGSLRLSCAASGSTFHPNAMGWYIQAPGKERQLVAAISRGGSTNYADSVKGRFTISRDNAKNTVYLQMNSLKPEDTAVYYCAKDFFGISSDPVDMDYWGQGTQVTVSS | low polyreactivity |
| QVQLVESGGGLVQAGGSLRLSCAASGSTFHPNTMGWYRQAPGKERELGARISSGGSTNYADSVKGRFTISRDNAKNTVYLQMNSLKPEDTAVYYCAARTAFSGARGRGGYWGQGTQVTVSS | high polyreactivity |
| QVQLVESGGGLVQAGGSLRLSCAASGSTFHSYAMGWYRQAPGKERELVAAISSSGGSTYYADSVKGRFTISRDNAKNTVYLQMNSLKPEDTAVYYCAADWRTKGYDSLGQGTQVTVSS | high polyreactivity |
| QVQLVESGGGLVQAGGSLRLSCAASGSTFHTFAMGWYRPAPGKERELVAAINRRTGGTYYADSVKGRFTISRDNAKNTVDLQMNSLKPEDTAVFYCATDWFSYRGGIFDSWGQGTQVTVSS | low polyreactivity |
| QVQLVESGGGLVQAGGSLRLSCAASGSTFHTYAMGWYRQAPGKERELVASISYGVTTYYADSVKGRFTISRDNAKNTVYLQMNSLKPEDTAVYYCAREGYKWVYLSYGYWGQGTQVTVSS | low polyreactivity |
| QVQLVESGGGLVQAGGSLRLSCAASGSTFHWYTMGWYRPAPGKESELVAAITSGTSTYYADSVKGRFTISRDNSKITVYLQMNSLKPEDTAVYYCNTEGVWSVYGLYDYWGQGTQVTVSS | low polyreactivity |
| QVQLVESGGGLVQAGGSLRLSCAASGSTFHYYAMGWYRQAPGKERELVAAINSGARTYYADSVKGRFTISRDNAKNTVYLQMNSLKPEDTAVYYCNKAFQWSGGQVSYDFWGQGTQVTVSS | low polyreactivity |
| QVQLVESGGGLVQAGGSLRLSCAASGSTFHYYAMGWYRQAPGKERELVAAISYRGSTYYADSVKGRFTISRDNAKNTVYLQMNSLKPEDTAVYYCAVVSSRGRRIYGYWGQGTQVTVSS | high polyreactivity |
| QVQLVESGGGLVQAGGSLRLSCAASGSTFHYYAMGWYRQAPGKERELVAAISYSGGRTYYADSVKGRFTISRDNAKNTVYLQMNSLKPEDTAVYYCAARRSRTGRDESWGQGTQVTVSS | high polyreactivity |
| QVQLVESGGGLVQAGGSLRLSCAASGSTFIANAMGWYRKAPGKERELVAAISQSGDSTYYADSVKGRFTISRENAKNTVYLQMNSMKPEDTAVYYCAAEDVDGYEYWGQGTQVTVSS | high polyreactivity |
| QVQLVESGGGLVQAGGSLRLSCAASGSTFIANTMGWYRQAPGKERELVAAITDSGGSTYYADSVKGRFTISRDNAKNTVYLQMNSLKPEDTAVYYCNADYVYVFIRAWSYDYWGQGTQVTVSS | low polyreactivity |
| QVQLVESGGGLVQAGGSLRLSCAASGSTFIFNAMGWYRQAPGKERELVAAISWRVGRTYYADSVKGRFTISRDNAKNTVYLQMNSLKPEDTAVYYCAAPKSSTGHYYSWGQGTQVTVSS | low polyreactivity |
| QVQLVESGGGLVQAGGSLRLSCAASGSTFIFYAMGWYRQAPGKERELVATISGGGSTYYADSVKGRFTISRDNAKNTVYLQMNSLKPEDTAVYYCATDVQVPGIGRSVYAYEYWGQGTQVTVSS | low polyreactivity |
| QVQLVESGGGLVQAGGSLRLSCAASGSTFIFYSMGWYRQAPGKERELVAAITSSGGSTYYADSVKGRFTISRDNANNTVYLQMNSLKPEDTAVYYCITLAYTYGSKFGYWGQGTQVTVSS | low polyreactivity |
| QVQLVESGGGLVQAGGSLRLSCAASGSTFIFYTLGWYRQAPGKERELVAAITSNGGSTYYADSVKGRFTISRDTAKKTVYLQMNSLKPEDTAVDYCAKKGVGQYDWGQGTQVTVSS | high polyreactivity |
| QVQLVESGGGLVQAGGSLRLSCAASGSTFIGNAMGWYRQAPGKERELVADISWSTASTYYADSVKGRFTISRDNAKNTVYLQMNSLKPEDTAVYYCARDPFVYLYLVDYDYWGQGTQVTVSS | low polyreactivity |
| QVQLVESGGGLVQAGGSLRLSCAASGSTFIGYAMGWYRQAPGKERELVAAISRSDGSTYYADSVKGRFTISRDNAKNTVYLQMNSLKPEDTAVYYCNADYYRWYDYWGQGTQVTVSS | low polyreactivity |
| QVQLVESGGGLVQAGGSLRLSCAASGSTFIGYDMGWYRQAPGKERELVAAISYSDGTYYADSVKGRFTISRDNAKNTVYLQMNSLKPEDTAVYYCAAVSLYYRYDYWGQGTQVTVSS | low polyreactivity |
| QVQLVESGGGLVQAGGSLRLSCAASGSTFIGYTMGWYRQAPGKERELVAAIRYSSGRTYYADSVKGRFTISRDNAKNTVYLQMNSLKPEDTAVYYCAAANPRDHRGANDYWGQGTQVTVSS | high polyreactivity |
| QVQLVESGGGLVQAGGSLRLSCAASGSTFIIYAMGWSRQAPGKERELVAAITRDGSTYADSVKRRFTISRDNAKNTVYLQMNRLKPEDTAVYYCAATSRQGYDYWGQGTEVTVSS | high polyreactivity |
| QVQLVESGGGLVQAGGSLRLSCAASGSTFIIYAMGWYRQAPGKERELVAAITWRGGTTYYADSVKGRFTISRDNAKNTVYLQMNSLKPEDTAVYYCNAKFGYPFVDYDDYWGQGTKVTVSS | low polyreactivity |
| QVQLVESGGGLVQAGGSLRLSCAASGSTFIKNAMGWYRQAPGKERELVAAISSSASSTYYADSVKGRFTISRDNAKNTVYLQMNSLKPEDTAVYYCAARASRKYNYWGQGTQVTVSS | high polyreactivity |

| Sequence | polyreactivity (PSR sort gate) |
| --- | --- |
| QVQLVESGGGLVQAGGSLRLSCAASGSTFINYAMGWYRQAPGKERELVAAISRSGGTTYYADSVKGRFTISRDNAKNTVYLQMNSLKPEDTAVYYCNATLGSYARTRYYYWGQGTQVTVSS | high polyreactivity |
| QVQLVESGGGLVQAGGSLRLSCAASGSTFINYAMGWYRQAPGKERELVAAISSSGGRTYYADSVKGSFTISRDNAKNTVYFLMNSLKPEDTAVYYCAASGRKNGMNYWGQGTLVTVSS | high polyreactivity |
| QVQLVESGGGLVQAGGSLRLSCAASGSTFIPNAMGWYRQAPGKERELVATIRSGGGRTYYADSVKGRFKISRDNAKNTVYLQMNSLKPEDTAVYYCAAGYYLSVQVYRFDYWGQGTQVTVSS | high polyreactivity |
| QVQLVESGGGLVQAGGSLRLSCAASGSTFIQNAMGWYTQAPGKERELVAAITSGGGTNYADSVKGRFTISRDNAKNTVYLQMNSLKPEDTAVYYCAAEPFNYVEFWFGWEYQYDYWGQGTQVTVSS | low polyreactivity |
| QVQLVESGGGLVQAGGSLRLSCAASGSTFIQYAMGWSRQAPGNERELVASIRWIGGSTYYADSVKGRFTISRDNAKNTVYLQMNSLKAEDTAVYYCAAGYEYVENGVDWYEYDYWGQGTQVTVSS | low polyreactivity |
| QVQLVESGGGLVQAGGSLRLSCAASGSTFIRNAMGWYRQAPGKERELVAAINSGGNTYYADSVKGRFTISRDNAKNTVYLQMNSLKPEDTAVYYCAKAWGTYRSVYYRGYYWGQGTQVTVSS | high polyreactivity |
| QVQLVESGGGLVQAGGSLRLSCAASGSTFIRYVMGWYRQAPGKERELVASITISVGSTYADSVKGRFTISRDNAKHTVYLQMNSLKPEDTAVYYCNARYVENTPYPYDYWGQGTQVTVSS | low polyreactivity |
| QVQLVESGGGLVQAGGSLRLSCAASGSTFITYAMGWYRQAPGKERELVAAISTGGSTYYADSVKGRFTISRDNAKNTVYLQMNSLKPEDTAVYYCNAYSSSRGSTLQYSLQYDYWGQGTQVTVSS | low polyreactivity |
| QVQLVESGGGLVQAGGSLRLSCAASGSTFIVNAMGWYRQAPGKERELVAAISRGGSTYYADSVKGRFTISRDNAKNTVYLQMNSLKPEHTAVYYCAARIWRTRRYDYWGQGTQVTVSS | high polyreactivity |
| QVQLVESGGGLVQAGGSLRLSCAASGSTFIWNGIVWSRQAPGNEREWVAAITSSSTNYADSVKGRFTISRDNANNTVYVQMNSLKPEDTAVYYCAAEIYPLGSLRLGPGEYDHWGQGTQVTVSS | low polyreactivity |
| QVQLVESGGGLVQAGGSLRLSCAASGSTFIYNTMGSYRQAPGKERELVATNTDSSDSTNYADSVKGRFTISRDNAKNTVYLQMNSLKPEDTAVYYCAADGEVDIATYPSQITDYDYWGQGTQVTVSS | low polyreactivity |
| QVQLVESGGGLVQAGGSLRLSCAASGSTFKAYAMGWYRQAPGKEMELVAVITADGSTSTHYADSVKGRFTISRDNAKNTVSLQMNSLNPEDTAVYYCAAGSPYYSERYYYWGQGTQVTVSS | low polyreactivity |
| QVQLVESGGGLVQAGGSLRLSCAASGSTFKFNAMGWYRQAPGKERELVAAISRGGRTNYADSVKGRFTISRDNAKNTVYLQMNSLKPEDTAVYYCAKDVAGLFHVGALYYYWGQGTQVTVSS | low polyreactivity |
| QVQLVESGGGLVQAGGSLRLSCAASGSTFKGYAMGCYRQAPGKERELVAAISWSAGSTYYADSVKGRFTISRDNAKNTVYLQMNSLKPEDTAVYYCAKASVALRYYSYSLGRDYWGQGTQVTVSS | low polyreactivity |
| QVQLVESGGGLVQAGGSLRLSCAASGSTFKHYAMGWYRQAPGKERELVAAISERGGSTYYADSVKGRFTISRDNAKNTVYLQMNSLKPEDTAVYYCARRVSRFSKFGYWGQGTQVTVSS | high polyreactivity |
| QVQLVESGGGLVQAGGSLRLSCAASGSTFKPYTMGWYRQAPGKERELVAGISSVDSTYYADSVKGRFTISRDNAKNTVYLQMNSLKPEDTAVYYCAADTVYIFSSAINGEFGYWGQGTQVTVSS | low polyreactivity |
| QVQLVESGGGLVQAGGSLRLSCAASGSTFKPYTMGWYRQAPGKERELVAGISSVDSTYYADSVKGRFTISRDNAKNTVYLQMNSLKPEDTAVYYCNKRKWPTFTYAMNYWGQGTQVTVSS | low polyreactivity |
| QVQLVESGGGLVQAGGSLRLSCAASGSTFKQYAMGWYRQAPGKERELVAAIDRGGSTYYADSVKGRFTNSRDNAKNTVYLQMNSLKPEDTAVYFCAARFVQYLYAYDYWGQGTKVTVSS | low polyreactivity |
| QVQLVESGGGLVQAGGSLRLSCAASGSTFKQYAMGWYRQAPGKERELVAAISSSGSTYYADSVKGRFTISRDNAKNTVYLQMNSLKPEDTAVYYCARSRYLWYTVPPKYGYWGQGTQVTVSS | high polyreactivity |
| QVQLVESGGGLVQAGGSLRLSCAASGSTFKRNAMGWYRQAPGKERELVAAITYSGTRTYYADSVKGRFTISRDNAKNTVYLQMNSLKPEDTAVYYCAVSVPYGMDYWGQGTQVTVSS | high polyreactivity |
| QVQLVESGGGLVQAGGSLRLSCAASGSTFKRYAMGLYRQAPGKERELVASIPSAASTYYADSVKGRFSISRDNAKNTVNLQMNSLKPEDTAVYYCAASAYSALYYWYDYWGQGTQVTVSS | high polyreactivity |
